In patent US20210221899A1 (published 2021):

T1: canine NGF (canine, UniProt Q29074 110-229 (pig entry), limits assumed)
T1 construct: The protein was secreted from CHO cells and purified; also called cNGF; canine β-NGF
T1 chain: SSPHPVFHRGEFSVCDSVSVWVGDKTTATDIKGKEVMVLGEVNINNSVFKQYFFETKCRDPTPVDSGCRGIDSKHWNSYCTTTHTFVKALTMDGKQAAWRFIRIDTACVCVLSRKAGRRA

T2: human NGF (human, UniProt P01138 122-241)
T2 construct: also called human Nerve Growth Factor; hN
T2 chain: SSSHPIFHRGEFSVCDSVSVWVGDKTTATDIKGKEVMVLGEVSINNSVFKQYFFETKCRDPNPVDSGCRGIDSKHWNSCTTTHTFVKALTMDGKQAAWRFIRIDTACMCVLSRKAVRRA


Experiments:
Test in all cases: SPR (Biacore T200), 100 nM mAb on NGF chip, similarity to parent mAb
canine NGF = target: T1, canine NGF
Source text: (§1) The region of an antibody responsible for antigen recognition represents the paratope. A paratope is created by a combination of amino acids in the complementarity determining regions (CDRs) of both the heavy and light chain variable regions. The binding between antibody and antigen is often mediated by side chains of CDR residues with side chains or carbohydrate moieties of the antigen. To help define critical side chains involved in antibody recognition alanine scanning mutagenesis was performed on each CDR residue in both the heavy and light chain, the technique as described by Cunningham and Wells (1989) Science, Vol. 244, Issue 4908, pp. 1081-1085. These mutants were then individually tested for the ability to NGF using the Biacore. […] Values were then compared to the wild type antibodies and are represented in the tables as a percent of wild type binding. The data presented in Tables 4 and 5 below are shown as a “percent similarity score” compared to wild type.
(§2) The mean response unit of four replicates of the parent mAb+/−3 standard deviations was used to generate parameters to define a threshold of response units comprising both the on- and off-rates antibody binding. The percentage of data points for each mutant fell within this threshold was then used to define a “% similarity score”. […] Results from substitution of alanine at each CDR position

human NGF = target: T2, human NGF
Source text: as §1, §2

rat NGF = target: T3, rat NGF (rat, UniProt P25427 122-241)
T3 construct: also called rN
Source text: as §1, §2

T3 sequence (P25427 122-241 limits assumed): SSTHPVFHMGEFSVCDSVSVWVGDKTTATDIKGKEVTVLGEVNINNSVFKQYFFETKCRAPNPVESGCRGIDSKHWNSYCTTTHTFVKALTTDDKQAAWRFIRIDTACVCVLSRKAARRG

| Binder | Percent Similarity Score (KD on cN) (canine NGF) | Percent Similarity Score (KD on hN) (human NGF) | Percent Similarity Score (KD on rN) (rat NGF) |
| --- | --- | --- | --- |
| can9L12VH_E99A (antibody, V domains shown) VH: EVQLVESGGDLVKPGGSLRLSCVASGFTFSSHGMHWVRQSPGKGLQWVAVINSGGSSTYYTDAVKGRFTISRDNAKNTVYLQMNSLRAEDTAMYYCAKASVGGWEQLVGPHFDYWGQGTLVIVSS VL: QSVLTQPTSVSGSLGQRVTISCSGSTNNIGILGASWYQLFPGKAPKLLVYGNGNRPSGVPDRFSGADSGDSVTLTITGLQAEDEADYYCQSFDTTLGAHVFGGGTHLTVL | 97.7% | 82% | 80.5% |
| can9L12VH_G54A (antibody, V domains shown) VH: EVQLVESGGDLVKPGGSLRLSCVASGFTFSSHGMHWVRQSPGKGLQWVAVINSAGSSTYYTDAVKGRFTISRDNAKNTVYLQMNSLRAEDTAMYYCAKESVGGWEQLVGPHFDYWGQGTLVIVSS VL: QSVLTQPTSVSGSLGQRVTISCSGSTNNIGILGASWYQLFPGKAPKLLVYGNGNRPSGVPDRFSGADSGDSVTLTITGLQAEDEADYYCQSFDTTLGAHVFGGGTHLTVL | 100% | 96.2% | 93.8% |
| can9L12VH_F112A (antibody, V domains shown) VH: EVQLVESGGDLVKPGGSLRLSCVASGFTFSSHGMHWVRQSPGKGLQWVAVINSGGSSTYYTDAVKGRFTISRDNAKNTVYLQMNSLRAEDTAMYYCAKESVGGWEQLVGPHADYWGQGTLVIVSS VL: QSVLTQPTSVSGSLGQRVTISCSGSTNNIGILGASWYQLFPGKAPKLLVYGNGNRPSGVPDRFSGADSGDSVTLTITGLQAEDEADYYCQSFDTTLGAHVFGGGTHLTVL | 28.3% | 8% | 11.8% |
| can9L12VH_G109A (antibody, V domains shown) VH: EVQLVESGGDLVKPGGSLRLSCVASGFTFSSHGMHWVRQSPGKGLQWVAVINSGGSSTYYTDAVKGRFTISRDNAKNTVYLQMNSLRAEDTAMYYCAKESVGGWEQLVAPHFDYWGQGTLVIVSS VL: QSVLTQPTSVSGSLGQRVTISCSGSTNNIGILGASWYQLFPGKAPKLLVYGNGNRPSGVPDRFSGADSGDSVTLTITGLQAEDEADYYCQSFDTTLGAHVFGGGTHLTVL | 100% | 40% | 62% |
| can9L12VH_H111A (antibody, V domains shown) VH: EVQLVESGGDLVKPGGSLRLSCVASGFTFSSHGMHWVRQSPGKGLQWVAVINSGGSSTYYTDAVKGRFTISRDNAKNTVYLQMNSLRAEDTAMYYCAKESVGGWEQLVGPAFDYWGQGTLVIVSS VL: QSVLTQPTSVSGSLGQRVTISCSGSTNNIGILGASWYQLFPGKAPKLLVYGNGNRPSGVPDRFSGADSGDSVTLTITGLQAEDEADYYCQSFDTTLGAHVFGGGTHLTVL | 10.1% | 2.79% | 3.25% |
| can9L12VH_F27A (antibody, V domains shown) VH: EVQLVESGGDLVKPGGSLRLSCVASGATFSSHGMHWVRQSPGKGLQWVAVINSGGSSTYYTDAVKGRFTISRDNAKNTVYLQMNSLRAEDTAMYYCAKESVGGWEQLVGPHFDYWGQGTLVIVSS VL: QSVLTQPTSVSGSLGQRVTISCSGSTNNIGILGASWYQLFPGKAPKLLVYGNGNRPSGVPDRFSGADSGDSVTLTITGLQAEDEADYYCQSFDTTLGAHVFGGGTHLTVL | 100% | 100% | 100% |
| can9L12VH_G33A (antibody, V domains shown) VH: EVQLVESGGDLVKPGGSLRLSCVASGFTFSSHAMHWVRQSPGKGLQWVAVINSGGSSTYYTDAVKGRFTISRDNAKNTVYLQMNSLRAEDTAMYYCAKESVGGWEQLVGPHFDYWGQGTLVIVSS VL: QSVLTQPTSVSGSLGQRVTISCSGSTNNIGILGASWYQLFPGKAPKLLVYGNGNRPSGVPDRFSGADSGDSVTLTITGLQAEDEADYYCQSFDTTLGAHVFGGGTHLTVL | 100% | 100% | 99.9% |
| can9L12VH_G55A (antibody, V domains shown) VH: EVQLVESGGDLVKPGGSLRLSCVASGFTFSSHGMHWVRQSPGKGLQWVAVINSGASSTYYTDAVKGRFTISRDNAKNTVYLQMNSLRAEDTAMYYCAKESVGGWEQLVGPHFDYWGQGTLVIVSS VL: QSVLTQPTSVSGSLGQRVTISCSGSTNNIGILGASWYQLFPGKAPKLLVYGNGNRPSGVPDRFSGADSGDSVTLTITGLQAEDEADYYCQSFDTTLGAHVFGGGTHLTVL | 100% | 100% | 99.3% |
| can9L12VH_F29A (antibody, V domains shown) VH: EVQLVESGGDLVKPGGSLRLSCVASGFTASSHGMHWVRQSPGKGLQWVAVINSGGSSTYYTDAVKGRFTISRDNAKNTVYLQMNSLRAEDTAMYYCAKESVGGWEQLVGPHFDYWGQGTLVIVSS VL: QSVLTQPTSVSGSLGQRVTISCSGSTNNIGILGASWYQLFPGKAPKLLVYGNGNRPSGVPDRFSGADSGDSVTLTITGLQAEDEADYYCQSFDTTLGAHVFGGGTHLTVL | 100% | 100% | 99.9% |
| can9L12VH_G102A (antibody, V domains shown) VH: EVQLVESGGDLVKPGGSLRLSCVASGFTFSSHGMHWVRQSPGKGLQWVAVINSGGSSTYYTDAVKGRFTISRDNAKNTVYLQMNSLRAEDTAMYYCAKESVAGWEQLVGPHFDYWGQGTLVIVSS VL: QSVLTQPTSVSGSLGQRVTISCSGSTNNIGILGASWYQLFPGKAPKLLVYGNGNRPSGVPDRFSGADSGDSVTLTITGLQAEDEADYYCQSFDTTLGAHVFGGGTHLTVL | 11% | 3.4% | 4.7% |
| can9L12VH_G26A (antibody, V domains shown) VH: EVQLVESGGDLVKPGGSLRLSCVASAFTFSSHGMHWVRQSPGKGLQWVAVINSGGSSTYYTDAVKGRFTISRDNAKNTVYLQMNSLRAEDTAMYYCAKESVGGWEQLVGPHFDYWGQGTLVIVSS VL: QSVLTQPTSVSGSLGQRVTISCSGSTNNIGILGASWYQLFPGKAPKLLVYGNGNRPSGVPDRFSGADSGDSVTLTITGLQAEDEADYYCQSFDTTLGAHVFGGGTHLTVL | 100% | 97.4% | 94.8% |
| can9L12VH_E105A (antibody, V domains shown) VH: EVQLVESGGDLVKPGGSLRLSCVASGFTFSSHGMHWVRQSPGKGLQWVAVINSGGSSTYYTDAVKGRFTISRDNAKNTVYLQMNSLRAEDTAMYYCAKESVGGWAQLVGPHFDYWGQGTLVIVSS VL: QSVLTQPTSVSGSLGQRVTISCSGSTNNIGILGASWYQLFPGKAPKLLVYGNGNRPSGVPDRFSGADSGDSVTLTITGLQAEDEADYYCQSFDTTLGAHVFGGGTHLTVL | 100% | 98.4% | 100% |
| can9L12VH_K98A (antibody, V domains shown) VH: EVQLVESGGDLVKPGGSLRLSCVASGFTFSSHGMHWVRQSPGKGLQWVAVINSGGSSTYYTDAVKGRFTISRDNAKNTVYLQMNSLRAEDTAMYYCAAESVGGWEQLVGPHFDYWGQGTLVIVSS VL: QSVLTQPTSVSGSLGQRVTISCSGSTNNIGILGASWYQLFPGKAPKLLVYGNGNRPSGVPDRFSGADSGDSVTLTITGLQAEDEADYYCQSFDTTLGAHVFGGGTHLTVL | 22.8% | 8.58% | 7.92% |
| can9L12VH_H32A (antibody, V domains shown) VH: EVQLVESGGDLVKPGGSLRLSCVASGFTFSSAGMHWVRQSPGKGLQWVAVINSGGSSTYYTDAVKGRFTISRDNAKNTVYLQMNSLRAEDTAMYYCAKESVGGWEQLVGPHFDYWGQGTLVIVSS VL: QSVLTQPTSVSGSLGQRVTISCSGSTNNIGILGASWYQLFPGKAPKLLVYGNGNRPSGVPDRFSGADSGDSVTLTITGLQAEDEADYYCQSFDTTLGAHVFGGGTHLTVL | 38.2% | 13.8% | 51.5% |
| can9L12VH_G103A (antibody, V domains shown) VH: EVQLVESGGDLVKPGGSLRLSCVASGFTFSSHGMHWVRQSPGKGLQWVAVINSGGSSTYYTDAVKGRFTISRDNAKNTVYLQMNSLRAEDTAMYYCAKESVGAWEQLVGPHFDYWGQGTLVIVSS VL: QSVLTQPTSVSGSLGQRVTISCSGSTNNIGILGASWYQLFPGKAPKLLVYGNGNRPSGVPDRFSGADSGDSVTLTITGLQAEDEADYYCQSFDTTLGAHVFGGGTHLTVL | 99.8% | 38.2% | 62.5% |
